Measured values: patent publication US20180072804A1 (Hoffmann-La Roche, published 2018)

Assays:
[1] = target: T1, human TIM3, full length, on cells (human, UniProt Q8TDQ0 22-301); experiment: cell-based or functional assay
[2] = target: T1, human TIM3, full length, on cells; experiment: cell-based or functional assay; remark: listed apart in the source
Tim3-ECD-His-Biotin = target: T2, Tim3-ECD-His-Biotin (human, UniProt Q8TDQ0 22-202, biotinylated with BirA Ligase); experiment: ELISA on Tim3-ECD-His-Biotin
T2 construct: Coated on streptavidin plates; also called human Tim3 (ELISA); Biochem Human
Description: After washing (3×90 μl/well with PBST-buffer) 25 μl/well sheep-anti-mouse-POD (GE NA9310V) was added in 1:9000 dilution and incubated at RT for 1 h while shaking at 400 rpm rotation. After washing (4×90 μl/well with PBST-buffer) 25 TMB substrate (Calbiochem, #CL07) was added and incubated until OD 1.5-2.5. Then the reaction was stopped by addition of 25 μl/well 1N HCL-solution.

monomeric human Tim3-ECD [3] = target: T3, monomeric human Tim3-ECD (human, UniProt Q8TDQ0 22-202); experiment: SPR, Ab captured on anti-mouse IgG, 25 C
T3 construct: also called huTim3; hu Tim3-ECD

[4] = target: T4, Fc-tagged human Tim3-ECD dimer (human, UniProt Q8TDQ0 22-202); experiment: SPR, Ab captured on anti-mouse IgG, 25 C
T4 construct: also called huTim3Fc; huFc fused dimeric human Tim3-ECD

[5] = target: T5, cynomolgus TIM-3 on isolated cyno CD14+ monocytes (cynomolgus monkey, UniProt A0A2K5U3G7 22-294); experiment: FACS, cyno CD14+ monocytes, cyno1 (16719M)
T5 construct: whole, on cells; also called cyno monocytes expressing TIM-3
T5 sequence: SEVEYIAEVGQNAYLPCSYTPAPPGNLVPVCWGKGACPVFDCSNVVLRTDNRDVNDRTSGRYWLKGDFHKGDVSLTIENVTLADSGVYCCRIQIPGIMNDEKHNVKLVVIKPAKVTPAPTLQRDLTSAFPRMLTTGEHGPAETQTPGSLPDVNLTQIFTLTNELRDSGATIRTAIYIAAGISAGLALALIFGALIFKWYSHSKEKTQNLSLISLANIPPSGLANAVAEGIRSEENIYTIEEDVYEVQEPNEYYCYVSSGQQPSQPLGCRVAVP
Excerpt: (§1) CD14+ Monocytes were isolated from cynomolgus monkey anticoagulated peripheral blood (Covance) by density gradient centrifugation using Ficoll-Paque (GE Healthcare) (see General Protocols in the User Manuals or visit www.miltenyibiotec.com/protocols) and subsequent positive selection via NHP CD14 MicroBeads. First the CD14+ cells are magnetically labeled with CD14 MicroBeads. Then the cell suspension is loaded onto a MACS® Column which is placed in the magnetic field of a MACS Separator. The magnetically labeled CD14+ cells are retained in the column. The unlabeled cells run through, this cell fraction is depleted of CD14+ cells. After removal of the column from the magnetic field, the magnetically retained CD14+ cells can be eluted as the positively selected cell fraction. After centrifugation at 200×g for 10 min at room temperature the monocytes were harvested and used directly in binding assay or resuspended in freezing medium (10% DMSO, 90% FCS) at 1.0E+07 cells/ml and stored in liquid nitrogen.
(§2) After washing and centrifugation MFI signals of stained cells were analyzed by BD Biosciences FACSCanto flow cytometer.

[6] = target: T5, cynomolgus TIM-3 on isolated cyno CD14+ …; experiment: FACS, cyno CD14+ monocytes, cyno2 (17435M)
Excerpt: as §1, §2

[7] = target: T5, cynomolgus TIM-3 on isolated cyno CD14+ …; experiment: FACS, cyno CD14+ monocytes, cyno3 (30085F)
Excerpt: as §1, §2

[8] = target: T1, human TIM3, full length, on cells; experiment: FACS, human CD14+ monocytes, donor1, 10 µg/ml
Excerpt: (§3) CD14+ Monocytes were isolated from anticoagulated peripheral blood of healthy donors by density gradient centrifugation using Ficoll-Paque (GE Healthcare) (see General Protocols in the User Manuals or visit www.miltenyibiotec.com/protocols) and subsequent positive selection via CD14 MicroBeads. First the CD14+ cells are magnetically labeled with CD14 MicroBeads. Then the cell suspension is loaded onto a MACS® Column which is placed in the magnetic field of a MACS Separator. The magnetically labeled CD14+ cells are retained in the column. The unlabeled cells run through, this cell fraction is depleted of CD14+ cells. After removal of the column from the magnetic field, the magnetically retained CD14+ cells can be eluted as the positively selected cell fraction. After centrifugation at 200×g for 10 min at room temperature the monocytes were harvested and used directly in binding assay or resuspended in freezing medium (10% DMSO, 90% FCS) at 1.0E+07 cells/ml and stored in liquid nitrogen.
as §2

[9] = target: T1, human TIM3, full length, on cells; experiment: FACS, human CD14+ monocytes, donor2, 10 µg/ml
Excerpt: as §3, §2

[10] = target: T1, human TIM3, full length, on cells; experiment: FACS, human CD14+ monocytes, donor3, 10 µg/ml
Excerpt: as §3, §2

[11] = target: T1, human TIM3, full length, on cells; experiment: cell ELISA, CHO-K1 with full-length human Tim3
Description: Then the reaction was stopped by addition of 25 μl/well 1N HCL-solution.

monomeric human Tim3-ECD [12] = target: T3, monomeric human Tim3-ECD; experiment: SPR, Ab captured on anti-mouse IgG, monomeric Tim3-ECD
[13] = target: T4, Fc-tagged human Tim3-ECD dimer; experiment: SPR, Ab captured on anti-mouse IgG, dimeric Tim3-ECD-Fc
Description: Therefore, an anti-mouse IgG was immobilized by amine coupling to the surface of a (BIAcore) CMS sensor chip. […] The sensor chip surface was regenerated after each analysis cycle. The equilibrium constant KD was finally gained by fitting the data to a 1:1 Langmuir interaction model.
The samples were injected for 30 seconds with a concentration of 200 μg/ml and bound to the spots 1 and 5 of each flow cell, allowing the measurement of eight samples in parallel. […] The flow rate was set to 30 μl/min for the whole run.
Finally the double referenced data was fitted to a 1:1 Langmuir interaction model with the BIAcore B4000 Evaluation Software.

[14] = target: T1, human TIM3, full length, on cells; experiment: cell-based or functional assay; remark: listed apart in the source
[15] = target: T1, human TIM3, full length, on cells; experiment: cell-based or functional assay; remark: listed apart in the source

B1: anti-TIM3 antibody Tim3_0038 (antibody, V domains shown)
VH: EVQLQQSGAEPLKPGASVKLTCTTSGFNIKDYYIHWVKQRSDQGLEWIGRIDPEDGELIYAPKFQDKATITVDTSSNIAYLQLNSLTSEDTAVYYCSRDHGYVGWFAYWGQGTLVTVSA
VL: NVVMTQSPKSMIMSVGQRVTLNCKASENVDTYVSWYQQKPEQSPKLLIYGASNRYTGVPDRFTGSRSATDFTLTISSVQAEDLAVYYCGQSYSYPWTFGGGTKLEFR
notes: Mouse monoclonal from hybridoma
In the case of B1, the “IFNgamma release in MLR, % of rec hu IL-2 control, 1 µg/ml” value [1] is reported as 1%, the “IFNgamma release in MLR, % of rec hu IL-2 control, 10 µg/ml” value [1] is reported as 38% and the “IFNgamma release in MLR, % of rec hu IL-2 control, 40 µg/ml” value [1] is reported as 51%. The “cytotoxicity IC50, Pfeiffer cells, with <mFc> Fab PE24” value [2] was under 0.002 nM, the EC50 (Tim3-ECD-His-Biotin) was 0.083 µg/mL and the Kd (monomeric human Tim3-ECD [3]) was 7.56 nM. The Kd [4] was 0.569 nM, the “Specific Binding [MFI]” value [5] was 97 MFI and the “Specific Binding [MFI]” value [6] was 107 MFI. The “Specific Binding [MFI]” value [7] was 120 MFI, the “Specific Binding [MFI]” value [8] was 1640 MFI and the “Specific Binding [MFI]” value [9] was 1370 MFI. For the same binder, the “Specific Binding [MFI]” value [10] was 1400 MFI, the EC50 [11] was 0.029 µg/mL and the Kd (monomeric human Tim3-ECD [12]) was 7.6 nM. For the same binder, the Kd [13] was 0.6 nM.

B2: Fab-PE24 construct of anti-TIM3 antibody Tim3_0021 (Fab, V domains shown)
VH: QVQLQQSGPQLVRPGASVQISCKASGYSFTSYLLHWLKQRPGQGLEWIGMIDPSDSETRLNQKFKDKATLTVDKSSSTAYMQLSSPTSEDSAVYYCARDGYYAWYYFDCWGQGTTLTVSS
VL: DIVLTQSPATLSVTPGDRVSLSCRASQSIGNNLHWYQQKSHESPRLLIKYASHSISGIPSKFSGTGSGTDFTLSFNSVETEDFGMYFCQQSNSWPLTFGAGTKLELK
In the case of B2, the “Max. killing, Pfeiffer cells” value [14] is reported as 98.4%.

B3: Fab-PE24 construct of anti-TIM3 antibody Tim3_0033 (Fab, V domains shown)
VH: QGQMHQSGAELVKPGSSVKLSCKTSGFTFSSSFISWLKQKPGQSLEWIAWIYAATGSTSYNQKFTNKAQLTVDTSSSAAYMQFSSLTTEDSAIYYCARHAGYPHYYAMDYWGQGTSVTVSS
VL: DIQMTQSPASLSASVGETVTITCRASENIFSNLAWYQQKQGKSPQLLVYSATNLGDGVPSRFSGSGSGTQFSLKINSLQPEDFGNYYCQHFYKIPFTFGTGTKLEIK
In the case of B3, the “Max. killing, Pfeiffer cells” value [14] is reported as 99.8% and the “Max. killing, RPMI-8226 cells” value [14] is reported as 99.7%.

B4: Tim3_0026, full length human IgG1 format (antibody, V domains shown)
VH: QIQLVQSGPELKKPGETVKISCKASGYTFTDYSMHWVKQAPGRGLKWMGYINTETYEPTFGADFKGRFAFSLDTSATTAYLQINSLKTEDTATFFCGGGGYPAYWGQGTVVIVSA
VL: DVLMTQTPLSLPVSLGDQASISCRSSRTILHSSGNTYLEWYLQKPGQSPKLLIYKVSNRFSGVPDRFSGSGSGTDFTLNISRVEAEDLGVYYCFQDSHVPFTFGTGTKLEIK
For B4, the “Max. killing, Pfeiffer cells, with anti-human Fc Fab PE24” value [15] was 78.3%, the “Max. killing, RPMI-8226 cells, with anti-human Fc Fab PE24” value [15] was 83.1% and the “Rel. IC50, Pfeiffer cells, with anti-human Fc Fab PE24” value [15] was under 0.02 nM.
